Laboratory results from patent US20190062438A1 (CSL, published 2019).

What was measured:
Assay in all cases: SPR, kinetics, Fab over captured mutant
shCD131 H42A = target: T1, shCD131 H42A (human, UniProt P32927 17-438)
T1 construct: C-terminal 6xHis
T1 sequence: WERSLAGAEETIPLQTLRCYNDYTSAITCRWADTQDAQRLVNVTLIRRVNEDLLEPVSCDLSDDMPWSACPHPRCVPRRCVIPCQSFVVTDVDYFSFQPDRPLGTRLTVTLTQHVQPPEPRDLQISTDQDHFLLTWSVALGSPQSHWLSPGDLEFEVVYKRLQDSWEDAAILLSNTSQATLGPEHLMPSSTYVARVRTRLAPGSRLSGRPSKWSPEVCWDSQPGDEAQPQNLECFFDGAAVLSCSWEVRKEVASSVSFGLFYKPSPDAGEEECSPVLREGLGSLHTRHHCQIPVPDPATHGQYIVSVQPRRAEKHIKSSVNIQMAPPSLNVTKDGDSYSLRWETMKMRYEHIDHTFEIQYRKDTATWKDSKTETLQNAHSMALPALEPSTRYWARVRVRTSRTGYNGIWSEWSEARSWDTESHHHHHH

shCD131 N337A = target: T2, shCD131 N337A (human, UniProt P32927 17-438)
T2 construct: C-terminal 6xHis
T2 sequence: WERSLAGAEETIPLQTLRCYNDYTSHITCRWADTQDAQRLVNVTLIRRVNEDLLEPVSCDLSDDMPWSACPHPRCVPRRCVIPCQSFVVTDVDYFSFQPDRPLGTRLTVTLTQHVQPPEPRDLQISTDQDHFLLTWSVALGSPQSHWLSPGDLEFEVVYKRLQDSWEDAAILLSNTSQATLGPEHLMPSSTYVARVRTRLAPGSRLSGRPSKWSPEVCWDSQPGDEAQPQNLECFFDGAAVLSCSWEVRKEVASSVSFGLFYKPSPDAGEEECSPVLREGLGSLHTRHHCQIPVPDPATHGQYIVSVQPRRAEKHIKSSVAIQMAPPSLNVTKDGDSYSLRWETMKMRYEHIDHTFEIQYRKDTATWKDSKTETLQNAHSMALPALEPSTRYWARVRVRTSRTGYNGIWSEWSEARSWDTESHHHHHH

shCD131 D107A = target: T3, shCD131 D107A (human, UniProt P32927 17-438)
T3 construct: C-terminal 6xHis
T3 sequence: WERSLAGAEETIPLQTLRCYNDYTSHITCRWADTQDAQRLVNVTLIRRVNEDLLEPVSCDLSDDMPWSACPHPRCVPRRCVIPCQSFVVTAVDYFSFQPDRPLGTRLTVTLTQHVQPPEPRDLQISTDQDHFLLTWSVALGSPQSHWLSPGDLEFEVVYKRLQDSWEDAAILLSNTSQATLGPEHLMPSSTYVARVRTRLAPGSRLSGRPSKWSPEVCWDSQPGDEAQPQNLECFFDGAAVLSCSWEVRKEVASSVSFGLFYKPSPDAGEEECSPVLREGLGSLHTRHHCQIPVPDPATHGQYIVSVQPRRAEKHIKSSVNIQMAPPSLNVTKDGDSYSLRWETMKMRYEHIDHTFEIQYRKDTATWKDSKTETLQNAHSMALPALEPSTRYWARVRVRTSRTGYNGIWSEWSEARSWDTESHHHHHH

shCD131 R364A = target: T4, shCD131 R364A (human, UniProt P32927 17-438)
T4 construct: C-terminal 6xHis
T4 sequence: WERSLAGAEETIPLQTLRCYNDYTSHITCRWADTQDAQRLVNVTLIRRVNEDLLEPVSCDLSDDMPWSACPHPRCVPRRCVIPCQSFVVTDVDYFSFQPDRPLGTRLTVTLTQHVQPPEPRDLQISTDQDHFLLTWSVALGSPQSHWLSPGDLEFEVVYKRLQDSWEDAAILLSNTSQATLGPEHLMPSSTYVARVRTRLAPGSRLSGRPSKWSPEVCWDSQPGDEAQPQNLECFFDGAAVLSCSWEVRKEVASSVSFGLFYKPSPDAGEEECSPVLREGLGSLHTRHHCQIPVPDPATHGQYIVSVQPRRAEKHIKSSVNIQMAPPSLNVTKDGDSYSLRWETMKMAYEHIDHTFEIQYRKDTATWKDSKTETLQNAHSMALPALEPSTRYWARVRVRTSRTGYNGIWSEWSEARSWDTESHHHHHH

B1: 9A2 Fab (Fab, V domains shown)
VH: EVQLLESGGGLVQPGGSLRLSCAASGFTFSHYHMLWVRQAPGKGLEWVSSIRSSGGFTYYADSVKGRFTISRDNSKNTLYLQMNSLRAEDTAVYYCARFYDSFFDIWGQGTMVTVSS
VL: DIQMTQSPSSVSASVGDRVTITCRASQGISSWLAWYQQKPGKAPKLLIYAASSLQSGVPSRFSGSGSGTDFTLTISSLQPEDFATYYCQQANSFPITFGQGTRLEIKR
notes: also called recombinant Fab of 9A2
B1 showed a Kd (shCD131 H42A) of 41 nM, a Kd (shCD131 N337A) of 91 nM and a Kd (shCD131 D107A) of 191 nM. It also gave a Kd (shCD131 R364A) of 119 nM.
